Data set [1] deals with T1, IcmF (isobutyryl-CoA mutase fused) (Cupriavidus metallidurans, UniProt Q1LRY0, Q341A).
T1 construct: resting homodimer; oligomerizes with GTP/GMPPCP; modelled residues 22-1093
The experiment in a line: cryo-EM, […] Å. In kind it is binding. The note with it: sample prepared with 500 μM GTP, 2 μM enzyme; GDP modelled at each nucleotide site of the G-protein domain; Mg2+ in chain A.

Data set [2] has as its target T2, IcmF (isobutyryl-CoA mutase fused) (Cupriavidus metallidurans, UniProt Q1LRY0).
T2 construct: resting homodimer; oligomerizes with GTP/GMPPCP; modelled residues 22-1093
T2 sequence (Q1LRY0 1-1093): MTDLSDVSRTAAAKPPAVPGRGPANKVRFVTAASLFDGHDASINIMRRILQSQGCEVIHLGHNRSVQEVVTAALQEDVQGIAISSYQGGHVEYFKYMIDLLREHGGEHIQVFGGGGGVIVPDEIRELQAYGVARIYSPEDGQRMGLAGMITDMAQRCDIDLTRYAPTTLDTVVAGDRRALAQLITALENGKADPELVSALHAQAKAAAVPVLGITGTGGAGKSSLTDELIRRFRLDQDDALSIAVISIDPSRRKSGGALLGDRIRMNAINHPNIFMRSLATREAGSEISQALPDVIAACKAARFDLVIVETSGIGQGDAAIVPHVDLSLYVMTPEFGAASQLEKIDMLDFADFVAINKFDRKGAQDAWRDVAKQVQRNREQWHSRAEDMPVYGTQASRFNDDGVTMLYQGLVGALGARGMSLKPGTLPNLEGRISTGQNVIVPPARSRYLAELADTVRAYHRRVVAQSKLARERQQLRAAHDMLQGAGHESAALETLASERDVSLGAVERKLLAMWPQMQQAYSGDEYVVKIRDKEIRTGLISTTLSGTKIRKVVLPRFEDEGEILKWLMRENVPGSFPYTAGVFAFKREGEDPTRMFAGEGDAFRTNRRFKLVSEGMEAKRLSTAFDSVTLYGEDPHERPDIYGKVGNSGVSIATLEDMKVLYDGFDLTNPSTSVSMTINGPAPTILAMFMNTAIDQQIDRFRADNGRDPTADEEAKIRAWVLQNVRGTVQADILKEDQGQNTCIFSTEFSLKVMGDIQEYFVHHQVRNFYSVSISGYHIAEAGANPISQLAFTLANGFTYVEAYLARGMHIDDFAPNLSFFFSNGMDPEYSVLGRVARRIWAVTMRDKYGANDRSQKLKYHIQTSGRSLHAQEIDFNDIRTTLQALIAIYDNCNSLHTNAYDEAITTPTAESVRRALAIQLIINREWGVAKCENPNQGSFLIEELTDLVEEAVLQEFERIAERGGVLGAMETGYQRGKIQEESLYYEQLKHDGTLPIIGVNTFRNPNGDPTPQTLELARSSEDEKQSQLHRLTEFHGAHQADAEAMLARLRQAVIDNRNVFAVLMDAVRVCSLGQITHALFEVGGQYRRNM
The experiment in a line: negative stain EM of oligomers. The data set is classed as binding. The note with it: 500 μM GMPPNP; pH 8; with hydroxocobalamin or photolysed AdoCbl; weaker oligomerization agonist than GMPPCP.

Substrate in the data set “purified protein”: Nc1nc2c(ncn2[C@@H]2O[C@H](COP(=O)(O)OP(=O)(O)OP(=O)(O)O)[C@@H](O)[C@H]2O)c(=O)[nH]1
The experiment in a line: purified protein. In kind it is biochemical, Cupriavidus metallidurans. The following applies: GTPase, 0.5 μM enzyme, 23 °C, GTP 2–1500 μM.

Data set [3] concerns the molecule itself. The experiment in a line: negative stain EM; 20 ng/μl wt IcmF in 20 mM Hepes pH 8, 50 mM NaCl, no nucleotide or 500 μM GDP (30 min on ice); dimer seen, dimer with dimer not seen.
Data set [4] concerns the molecule itself. The experiment in a line: cryo-EM structure; 2 μM Q341A IcmF, 500 μM GTP in SEC buffer; 4.6 Å reconstruction, three protomers modelled.

Where a chain is given by its changes, count along the chain named. Names and notes keep the numbering of the source.

T1 sequence (Q1LRY0 whole entry Q341A, the tested form may be a part): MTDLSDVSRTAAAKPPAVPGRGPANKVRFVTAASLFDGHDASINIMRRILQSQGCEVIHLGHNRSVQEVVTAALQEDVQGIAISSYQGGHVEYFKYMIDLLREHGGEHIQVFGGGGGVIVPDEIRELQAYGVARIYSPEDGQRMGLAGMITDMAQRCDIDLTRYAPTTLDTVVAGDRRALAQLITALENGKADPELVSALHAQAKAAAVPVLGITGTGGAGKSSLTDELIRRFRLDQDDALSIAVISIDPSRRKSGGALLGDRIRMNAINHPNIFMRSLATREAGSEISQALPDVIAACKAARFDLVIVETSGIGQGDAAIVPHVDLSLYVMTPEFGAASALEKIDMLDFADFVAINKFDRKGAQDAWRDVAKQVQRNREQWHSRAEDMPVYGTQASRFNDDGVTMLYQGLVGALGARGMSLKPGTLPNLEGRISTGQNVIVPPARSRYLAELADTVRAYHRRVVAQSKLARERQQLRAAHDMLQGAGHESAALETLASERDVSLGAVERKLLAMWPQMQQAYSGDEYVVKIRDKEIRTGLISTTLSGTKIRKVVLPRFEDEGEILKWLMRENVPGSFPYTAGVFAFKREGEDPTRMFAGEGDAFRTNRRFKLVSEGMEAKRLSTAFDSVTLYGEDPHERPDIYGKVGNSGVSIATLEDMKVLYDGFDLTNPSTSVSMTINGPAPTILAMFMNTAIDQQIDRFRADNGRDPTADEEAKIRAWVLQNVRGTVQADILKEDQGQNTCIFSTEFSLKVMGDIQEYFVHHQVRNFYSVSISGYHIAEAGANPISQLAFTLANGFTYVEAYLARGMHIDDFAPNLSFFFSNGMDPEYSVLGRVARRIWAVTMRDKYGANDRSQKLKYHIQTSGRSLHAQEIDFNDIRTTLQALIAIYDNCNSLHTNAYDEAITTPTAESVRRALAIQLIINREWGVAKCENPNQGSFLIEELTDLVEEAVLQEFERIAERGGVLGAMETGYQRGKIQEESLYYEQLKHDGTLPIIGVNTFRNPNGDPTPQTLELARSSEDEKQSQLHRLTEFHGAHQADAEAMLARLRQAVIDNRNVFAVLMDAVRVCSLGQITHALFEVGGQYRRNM

For `Nc1nc2c(ncn2[C@@H]2O[C@H](COP(=O)(O)OP(=O)(O)O)[C@@H](O)[C@H]2O)c(=O)[nH]1` [GDP], the “cryo-EM, 4.6 Å” value in data set [1] is listed as “there was clear density for GDP at each nucleotide-binding site”.
On to `Nc1nc2c(ncn2[C@@H]2O[C@H](COP(=O)(O)OP(=O)(O)NP(=O)(O)O)[C@@H](O)[C@H]2O)c(=O)[nH]1` [GMPPNP], for which, in data set [2], the “negative stain EM of oligomers” value is “Photolysis of AdoCbl leads to more supramolecular complex formation but not as many as in the GMPPNP + OHCbl”.

B1: Cupriavidus metallidurans isobutyryl-CoA mutase fused (IcmF), wild type (enzyme, UniProt Q1LRY0 1-1093, looked up)
chain: T2 sequence (Q1LRY0 1-1093)
notes: Isobutyryl-CoA mutase fused (IcmF) of Cupriavidus metallidurans; Resting state is a homodimer; dimers join through their G-protein domains into higher-order oligomers; The plasmid has a thrombin cleavage site after the His-tag; no cleavage is described; also called wt IcmF; cmIcmF; source: E. coli BL21 T7 Express, purified (Ni-NTA, MonoQ, SEC)
What is called Km is the substrate concentration at which the rate is half of its maximum. Usually Vmax stands for the top rate of the reaction or transport when substrate is in excess. A word on the kcat: it is the maximal rate divided by the concentration of active sites. One may read the kcat/Km as the turnover number divided by the Michaelis constant. Usually stoichiometry N stands for a count of units in the complex or per binding partner. For the molecule B1, in “purified protein”, the Km was determined as 2.4 ± 0.9 µM, the maximum rate (Vmax) was found to be 1.57 µM/min, the kcat stood at 0.0522 ± 0.003 s⁻¹ and the catalytic efficiency (kcat/Km) worked out at 21700 M⁻¹ s⁻¹. In addition, the “stoichiometry N” value in data set [3] is 2.

B2: Cupriavidus metallidurans isobutyryl-CoA mutase fused (IcmF), Q341A switch III variant (enzyme, UniProt Q1LRY0 1-1093, looked up)
chain: T2 sequence (Q1LRY0 1-1093) with Q341A
notes: Isobutyryl-CoA mutase fused (IcmF) of Cupriavidus metallidurans with Q341A in the switch III region of the G-protein domain; also called Q341A IcmF; source: E. coli BL21 T7 Express, purified (Ni-NTA, MonoQ, SEC)
Consider B2, for which, in “purified protein”, the Michaelis constant (Km) was 2.2 ± 0.8 µM, the Vmax turned out to be 0.533 µM/min, the kcat was found to be 0.0178 ± 0.00117 s⁻¹ and the kcat/Km is 8170 M⁻¹ s⁻¹. Also, the binding result in data set [4] is recorded as “binds”.

Source of the values: publication PMC10481361, “Structural insight into G-protein chaperone-mediated maturation of a bacterial adenosylcobalamin-dependent mutase” (The Journal of Biological Chemistry, 2023).
